Patent US7364741B1, “Peptides of human Papilloma virus for use in human T cell response inducing compositions” (priority 1992, dated 2008)

Columns and labels:
HLA-A2.1 = biological target: T1, HLA-A2.1 (Homo sapiens, UniProt P04439, D140Y/D185E/D98H/E176V/E277Q/G131W/G231S/I119V/I121R/I166T/I218V/L300P/L318F/N151K/N90K/P208A/P217A/Q86G/Q94H/R138H/R169H/T345S); format: cell-based; settings: HPV16 peptides, 200 μg/ml peptide, 16 hours, 174CEM.T2 cells
T1 construct: endogenous in cells; host or cells: 174CEM.T2
Protocol: Of all peptides a dilution of 1 mg/ml in 0.9% NaCl was made.
174CEM.T2 cells were cultured in Iscovel's modified Dulbecco's medium (Biochrom KG Seromed Berlin, Germany: F0465) supplemented with 100 IU/ml penicillin (Biocades Pharma, Leiderdorp, The Netherlands), 100 μg/ml kanamycin (Sigma St. Louis, USA:K-0254), 2 mM glutamine (ICN Biomedicals Inc. Costa Mesa, Calif., USA:15-801-55) and 10% fetal calf serum (FCS, Hyclone Laboratories Inc. Logan, Utah, USA:A-1115-L). Cells were cultured at a density of 2.5×10^5/ml during 3 days at 37° C., 5% CO2 in humified air.
174CEM.T2 cells were washed twice in culture medium without FCS and put in serum-free culture medium to a density of 2×10^6 cells/ml. Of this suspension 40 μl was put into a V bottomed 96 well plate (Greiner GmbH, Frickenhausen, Germany: 651101) together with 10 μl of the individual peptide dilutions (of 1 mg/ml). The end concentration is 200 μg/ml peptide with 8×10^4 174CEM.T2 cells. This solution was gently agitated for 3 minutes after which an incubation time of 16 hours at 37° C., 5% CO2 in humified air took place. Then cells were washed once with 100 μl 0.9% NaCl, 0.5% bovine serum albumin (Sigma St. Louis, USA: A-7409), 0.02% NaN3 (Merck Darmstadt, Germany:822335). After a centrifuge round of 1200 rpm the pellet was resuspended in 50 μl of saturating amounts of HLA-A2.1 specific mouse monoclonal antibody BB7.2 for 30 minutes at 4° C. Then cells were washed twice and incubated for 30 minutes with F(ab)2 fragments of goat anti-mouse IgG that had been conjugated with […] (Tago Inc Burlingame, Calif., USA: 4350) in a dilution of 1:40 and a total volume of 25 μl.
After the last incubation, cells were washed twice and fluorescence was measured at 488 nanometer on a FACScan flow-cytometer (Becton Dickinson, Franklin Lakes, N.J., USA).
The 174CEM.T2 cell line expresses “empty” and unstable HLA-A2.1 molecules that can be stabilized when a peptide is binding to the peptide presenting groove of these molecules. […] This leads to an increase in cell surface expression of the HLA-A2.1 molecule.
With background fluorescence level (without adding peptides) set on a Fluorescence Index level of 0, binding of a peptide was regarded positive when the level of fluorescence was ≧0.5.

[1] = tested on: MLDLQPETT-sensitized T2 cells; assay: In vitro induction of primary CTL response and cytotoxicity assay on peptide-sensitized T2 cells; format: cell-based, human; settings: PBL of HLA-A2.1 donor stimulated with 80 μg/ml peptide; cytotoxicity assay on day 49; background: T2 with irrelevant peptide ATELQTTIH
Protocol: The expression of HLA-A2.1 on 174CEM.T2 cells (T2) is increased by incubating T2 cells in medium containing relevant peptide. T2 cells will present the relevant peptide bound to HLA-A2.1 in high amount and therefore are good antigen presenting cells (APC). In the response inducing method described below the T2 cell line is used as APC and post-Ficoll mononuclear cells are used as responder cells.
T2 cells in a concentration of 2×10^6 cells per ml were incubated for 13 h at 37° C. in a T 25 flask (Becton Dickinson, Falcon, Plymouth Engeland cat.nr. 3013) in serum-free IMDM (=Iscoves Modified Dulbecco's Medium: Biochrom KG, Seromed Berlin, Germany, cat.nr. F0465) with glutamine (2 mM, ICN Biochemicals Inc., Costa Meisa, USA, cat.nr. 15-801-55), antibiotics (100 IU/ml penicilline (Brocades Pharma, Leiderdorp, The Netherlands, 100 μg/ml kanamycine (Sigma, St. Louis, USA, K-0245)) and the selected peptide […] (=JWK3; SEQ ID NO:15) in a concentration of 80 μg/ml.
These incubated T2 cells were spun down and subsequently treated in a density of 20×10^6 cells/ml with Mitomycine C (50 μg/ml) in serum-free RPMI (Gibco Paislan, Scotland, cat.nr. 041-02409) medium for 1 h at 37° C. Hereafter the T2 cells were washed three times in RPMI. […]

MLDLQPETT [HPV16 peptide 13, residues 12-20 of HPV16 protein E7]
MF (mean HLA-A2.1 fluorescence) (HLA-A2.1): 217.6 | FI (Fluorescence Index) (HLA-A2.1; background set on 0, binding positive when ≧0.5): 2.3 | specificity of killing by peptide-induced bulk CTL culture [1]: seemed to be specific for killing MLDLQPETT (SEQ ID NO:15)-sensitized T2 cells
